Measurements as given in the DeepSol protein solubility set.

Experiment: soluble on expression in E. coli; label from the status in PepcDB or PDB records

Sequence	soluble on expression in E. coli
MMNASTKFSDNYDVKEELGKGAFSVVRRCVHKTTGLEFAAKIINTKKLSARDFQKLEREARICRKLQHPNIVRLHDSIQEESFHYLVFDLVTGGELFEDIVAREFYSEADASHCIQQILESIAYCHSNGIVHRDLKPENLLLASKAKGAAVKLADFGLAIEVNDSEAWHGFAGTPGYLSPEVLKKDPYSKPVDIWACGVILYILLVGYPPFWDEDQHRLYAQIKAGAYDYPSPEWDTVTPEAKSLIDSMLTVNPKKRITADQALKVPWICNRERVASAIHRQDTVDCLKKFNARRKLKAAISAVKMVTRMSGVLRTSDSTGSVASNGSTTHDASQVAGTSSQPTSPAAEVYPNVLLFNPQKFPRNCVHPFTTHPYYSPKESSKKKLFFTLLFEVCPHTSRSHILLRDNTKNIYHPYHCFTNKMSNYERAAPSSHGSSTTKKIANAIADLVIRRSSPSIRRKTEADVHNSNRNRKVSAPANLQHALVPVIDVVVATGALASSSVDNLSASTSSDLGRNLLNKKEQGPPSTIKESSESSQTIDDNDSEKGGGQLKHENTVVRADGATGIVSSSNSSTASKSSSTNLSAQKQDIVRVTQTLLDAISCKDFETYTRLCDTSMTCFEPEALGNLIEGIEFHRFYFDGNRKNQVHTTMLNPNVHIIGEDAACVAYVKLTQFLDRNGEAHTRQSQESRVWSKKQGRWVCVHVHRSTQPSTNTTVSEF	not soluble
MLEKNPTLEKLLKSLEDIQAIDIKIIDVHKQTTITDFMVVTSGRSSRHVKSIAQKVLEDMKVAGLPCLSSTGIEHGDWALIDFGDIILHVMQPEFRHFYNLEGLWEEHPGNSLEHHHHHH	not soluble
MRMAAMHSGGKTIQLNAGHYQAKIVTVGAGLAELTHHGRHVVIPHKPEEIPMAHLGKVLIPWPNRVTNGCYSYNGKVFQLAVNDPVSQTAIHGLLAWRDWQINYQSATEASLTIFLPPSYGYPFALISEVIYRLDAASGLHVLIRTQNIGDESAPYGAGAHPYLTCNLQSIDSCVLTLPASEELPAGRDFSASCLLGETRLDHAVKTATTPAEWEVRLTSPTQNMSTFLRSTQPWLQIYTGEKLSRKGLAVEPMSCPPDAFNSGIALIHLAPKAIHQLHFSIGCD	not soluble
MSAQASRQKKSDQEQRAADQALLNAAIEDNAMEQDENFTVIDKLESSGISSGDISKLKEAGYYTYESLAFTTRRELRNVKGISDQKAEKIMKEAMKFVQMGFTTGAEVHVKRSQLVQIRTGSASLDRLLGGGIETGSITEVYGEYRTGKTQLCHSLAVLCQLPIDMGGGEGKCMYIDTNATFRPERIIAIAQRYNMDSAHVLENIAVARAYNSEHLMALIIRAGAMMSESRYAVVIVDCATAHFRNEYTGRGDLAERQMKLSAFLKCLAKLADEYGVAVIITNQVVAQVDGGASMFQADAKKPIGGHIIAHMSTTRLYLRKGKGENRVAKMVQSPNLPEAEATYSITNHGIEDARED	not soluble
MGSDKIHHHHHHMSSMSARNPFRPTFGVSPTVLAGRDSLLQSFKLGLAEGPGSPFRALLISGSRGMGKTVLLNEFEDAAASQGWITLRAYPDNSMVDGLVNSAIPEALQNLDGPQSKRMLSGVAIPGIATVTAIADPTKKDPTPTLISRLRELATRLQKHGSGILITLDELQSANVDLLHVLATAVQDLLRDDFDIALVAAGLPEGIDRLLQHEGTTFIRRAERILLNPVNHEDSVEMFLYTAAYGYRHMTSEAAELAAQISKGYPYSMQLTGSLAWARSTLDNSDTIQAEQVDAVRDEVVRRMGMQVHEPSLHQVPDGELTILYAIAQLSKNGEMVSTGDIAHLMGVKPNALSMQRKQLLSRGLVEVPKYGFLNFTLPYMREHLLNSPHHRPIT	not soluble
TISQRPYRDRVIHLLALKAYKKPELLARLQKDGVNQKDKNSLGAILQQVANLNSKDLSYTLKDYVFKELQRDWPGYSEIDRRSLESVLSRKLN	soluble
MSNNETMMFNVEKEKVNEARELLVSVYKALKEKGYNPINQIVGYILSGDPTYITNHLDARSSIRKVERDELLEEILRCYLEECIGKEGSV	soluble
MGSDKIHHHHHHMVKTARRRGDDAVRGPGGVLVLGAASWNRMIHVETLPQGASATIFDARETQGAGSTGVGKAMGLAALGYQPTLHCALGRDDHGAQVIAACAGRGISLIVDEHDAATPHHLNIMDQLGGRYSLFLSNGAPDPPINEPRIAEQIAAADTIFLSLCASSKKILHLLEGARAEILLDLHDYDGANPWYEDFIACADVIQLSDVAVADPGAVARRLLSGRAHQVVVTKAGKGAEIVTADTSIDVPPCPADMVDSNGAGDAFSVALWHAQRTGQSGLDAGGFAAAAAACAIESADLFPVNVSAADIAGRVRAHPQDHSTGTASR	not soluble
MGSDKIHHHHHHMNLKQLRYFVTICEEGQITAAAKRLHIKQPLLSYEIKQLELELETSLFIRGPRGISLTDAGKVLKPYAEQITELSDVAKTKVKYLDKGISGSLSIGSISSSINKLPNQRLLKLKKYYPNIAINVIEGNTYKLLGYLEKGLIDLAILRTPFSSKGVIGYYFDKEPMVAVSAKNNQKDTVGLPDKYLKIDDLSNKPLIIYRRFKELIENTFRNLGFNPLIVVRCDDARTALDGAKVGFGTAIVPKSAILQVENEGEKDIEFREIKEKALETQLAIMWRRDDSFNPLTENFLKMFIGK	not soluble
GSGMKETAAAKFGERQHMDSPDLGTDDDDKAMACSAGPSGFFTRLGRLIKEKAKSDVEKVFSGFSKTRENLAVIDELLLFWNLAETDRVLDELEEALLVSDFGPKITVRIVERLREDIMSGKLKSGSEIKDALKESVLEMLAKKNSKTELQLGFRKPAVIMIVGVNGGGKTTSLGKLAHRLKNEGTKVLMAAGDTFRAAASDQLEIWAERTGCEIVVAEGDKAKAATVLSKAVKRGKEEGYDVVLCDTSGRLHTNYSLMEELIACKKAVGKIVSGAPNEILLVLDGNTGLNMLPQAREFNEVVGITGLILTKLDGSARGGCVVSVVEELGIPVKFIGVGEAVEDLQPFDPEAFVNAIFS	soluble
MSMVETAPSKIQVRDLNFYYGKFHALKNINLDIAKNQVTAFIGPSGCGKSTLLRTFNKMYSLYPEQRAEGEILLDGDNILTNTQDIALLRAKVGMVFQKPTPFPMSIYDNIAFGVRLFEKLSRADMDERVQWALTKAALWNETKDKLHQSGYSLSGGQQQRLCIARGIAIRPEVLLLDEPCSALDPISTGRIEELITELKQDYTVVIVTHNMQQAARCSDHTAFMYLGELIEFSNTDDLFTKPAKKQTEDYITGRYG	not soluble
MAFDKKLLDIVACPVCKGKLEYDKVAQQLICKADKLAYPITDGIPVLLENRALPLTESV	not soluble
KQNSLMGITGGLTARYISEKYFAMICGAQVELNISQRGWDELFEVPGENGEPVEDPTRKYTRKMTYLDIPFLAHLAFGNEKGLQFFINAGPQIGLLIGESESMENIDMNALTDTQKAVYGDKIQNKFDYGIAGGGGIEFRTKKAGSFLLEGRYYFALSDFYSTTKKDYFSRAAHGTITVKLTYLFDLK	not soluble
MRPDVAFALPALAGGGVERVYLDLAGAMVKEGLRVDFVLARAEGPLLAQLPQGVRLWDLGVPRRLPLLRAYTPLGVYLAQARPRVVLPDWDYLDWVPLQAAWRSRTPFLWVLHNAPAYLKDVPNPVKRHTALWAARQTLKRAVNHPLGRVGAVSRGVAQAFARFGGVPEERICVLPNPIHVDRVRRLSHENVPLPATPYFLALGRLHPQKGFSLLLEAFSIFAKHHPDVHLLILGEGPERPRLEKLAHTLGLTSRVAFLGFVVNPYPYLRGAKALVITSRYEGFSMVALEALALRVPVVAVESEGGLLEALGDGRFGIVTPRSPQALAHAMERVLSDGFAWDETALKDHLNQYSPEAALRSYMSVLEEIWR	soluble
MKITHCKLKKEVQKEPLRSFVPEVTARSAADILGIHPDSAALFYRKIRTVTNHRLALAADEVFECPAGPGASCFGVRRKGRRGRGAAGKAVVFGIPKRNGRAYTVAEDDAEPETLPPAVKKKIMPDGIVYADSPGSRGKSDAGGFTRCRINRSKEFADRRNHINGIGNFWNQAKRALRKYNGIDRKPFPPLLRECEFRFNFGTPSRQLKILRDRCGILEHHHHHH	soluble
MAHHHHHHMSWAALVKSIKPEEATNFTAKPRVTVFAVDPSQNDAERQLQNPQHETAEVKLPSFSKGLLILDANAIIKGMDNFVSTADALVTTPQVIAEIKDRASRELMERLPHKVTVLDPTPEAVAAVVACAERTGDFGAMSRTDIRLCALALECCKVGGFLGEPIEPRPPQVNPRNDDKVQVMTEEMGEDGSNDERAKSETAHAQGASSSAMPGWGDWSDEAKETDGEGGAGAAEEDDGEGEWITPENIQDVQSGTRGAGRAFEAGMACVTSDYAMQNTLMHLGVPIVGTNGIHIRELRLWMMRCTACFTLVVDTTRQFCPECGSGDTLRRVNYVVNDQGEKKLYINFRKRISTRGTIYNLPRPRGGTHGTNRNLVLREDQLAHVIRGTTSSKVKAHQVMQNDDGALATFGEAPKLKKKNLADPRAYSSYHRYNVNEKKKVRAAHRK	soluble
AGTGVVSVQFNNGSSPASSNSIYARFKVTNTSGSPINLADLKLRYYYTQDADKPLTFWCDHAGYMSGSNYIDATSKVTGSFKAVSPAVTNADHYLEVALNSDAGSLPAGGSIEIQTRFARNDWSNFDQSNDWSYTAAGSYMDWQKISAFVGGTLAYGSTP	soluble
MGVELSLDPPVCPIQANGGVSTHKIINHCDKMLAYKIKSSNNSNYSVNTIFGLIQIGYTADLIITRKPGKPQADKLVIQFAAVEQTCRDGCICQGCICQWTANWRVLWRDDHQAVSC	not soluble
MGHHHHHHSHMSEFMQRFADLRDRKAYAEIVDALPYVKLMGTSMAEDEQGELRFELPFLQRNVGNTTLPALHGGLIGGFMESAAMIHLMWNRESLEAPKIVDFSLDYLRPGRPQTLFAQCEITKQGKRVAHVLIEAWQDDRSKPVAVARAHFLLTN	soluble
MTDIKMIALGGVREYGKNFYLVEINDSMFILDAGLKYPENEQLGVDLVIPNLDYVIENKGKVQGIFLSHGHADAIGALPYLLAEVSAPVFGSELTIELAKLFVKSNNSTKKFNNFHVVDSDTEIEFKDGLVSFFRTTHSIPESMGIVIGTDKGNIIYTGDFKFDQAAREGYQTDLLRLAEIGKEGVLALLSDSVNATSNDQIASESEVGEEMDSVISDADGRVIVAAVASNLVRIQQVFDSATAHGRRVVLTGTDAENIVRTALRLEKLMITDERLLIKPKDMSKFEDHELIILEAGRMGEPINSLQKMAAGRHRYVQIKEGDLVYIVTTPSTAKEAMVARVENLIYKAGGSVKLITQNLRVSGHANGRDLQLLMNLLKPQYLFPVQGEYRDLAAHAKLAEEVGIFPENIHILKRGDIMVLNDEGFLHEGGVPASDVMIDGNAIGDVGNIVLRDRKVLSEDGIFIVAITVSKKEKRIISKAKVNTRGFVYVKKSHDILRESAELVNTTVGNYLKKDTFDWGELKGNVRDDLSKFLFEQTKRRPAILPVVMEVR	not soluble
MHPALWVSKTGLDAQQTNIATISNNLANASTVGYKKSRAVFEDLFYQNINQPGGQSSQNTELPSGLMLGAGSKVVATQKVHTHGNAQTTTNALDMMVEGDGFFQVTLPDGNIGYTRNGQFTLNGEGTLVTSGSGYPVEPEIVI	not soluble
MGSDKIHHHHHHMKVGVALSGGVDSAVALYLLLKEGHEVKAFHMKTKEDEFFIKKEIKKKVCCSPSDTADAMRIAHFLGVEIEIVDVKEIFREKVIEPFKRDLLKGLTPNPCAHCNRFVKFGYLMDYVLNQGFDAFASGHYARIEFSEKYGRKVIKKGVDLKKDQSYFLARIEPWRIERLIFPNGIYTKEEIRKIAEEAGIHVAKKQESQDVCFIPDGSIENFLKDEGITLKDGDIITPEGEVVGRHFGYPLYTIGQRKGFKIEKFGRRYYVRGKIPEKNVVVVSDLEDVFFSGLIAEDPVWHVEVPEEFRCVCRVRKKSEEAPAVVKVKDNEVEVSFEKKVFAVTPGQIAAFYDGDTLLGGAIIKEGIR	not soluble
